Source: publication PMC4899803

Biological target: cytochrome bd from Escherichia coli, His6-tagged (His6-CydABX) (E. coli) (UniProt P0ABJ9)
Assay: SEC; 500 ug purified cytochrome bd on Superose 6 10/300 in 50 mM MOPS, 100 mM NaCl, 0.1% LM, pH 7; UV 280 nm, refractive index and right angle light scattering monitored

- stoichiometry N: 4
Substance: cytochrome bd from Escherichia coli, His6-tagged (His6-CydABX) (from UniProt P0ABJ9 1-522; P0ABK2 1-379) (complex)
